Biological target: mouse CD40 (mouse) (UniProt P27512)
Assay: cell-based or functional assay

Sequence of UniProt P27512 (P27512 20-289): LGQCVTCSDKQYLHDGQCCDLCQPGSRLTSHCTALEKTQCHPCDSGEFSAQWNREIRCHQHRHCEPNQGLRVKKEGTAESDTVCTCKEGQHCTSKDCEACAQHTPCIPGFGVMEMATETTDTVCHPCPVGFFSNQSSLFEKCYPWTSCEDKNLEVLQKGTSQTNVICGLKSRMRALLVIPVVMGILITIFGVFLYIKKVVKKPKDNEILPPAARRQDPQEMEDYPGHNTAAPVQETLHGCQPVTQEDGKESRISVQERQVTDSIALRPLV

fold increase in frequency of cytoplasmic IL-10+ adult blood B cells, 48 h culture against 5 h L+PIM culture: 6 to 9 fold
reduction of LPS-induced IL-10 secretion by spleen B cells, ELISA of culture supernatant: > 68%
Substance: anti-mouse CD40 mAb (HM40-3) (antibody)
